According to patent US20260049138A1 (Chugai, published 2026):
Positions count from the first letter of the chain named. Names may count otherwise. One block for each binder: values may come before it.

Target: T1, CD3ε homodimer protein (human, UniProt P07766 23-126, limits assumed)
T1 construct: also called CD3 (CD3ε)
Assay: SPR Biacore T200, CD3ε homodimer on chip;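 further: Light-chain single-residue variant antibodies injected over amine-coupled CD3ε homodimer on a CM4 chip at 25 °C, bound amount divided by that of the GLS3000-containing antibody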

T1 sequence (P07766 23-126 limits assumed): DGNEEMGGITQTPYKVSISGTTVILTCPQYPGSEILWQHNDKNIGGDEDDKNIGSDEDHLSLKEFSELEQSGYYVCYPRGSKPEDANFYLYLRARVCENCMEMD

B2: GLS3000 P95L one-arm antibody (antibody, human IgG1, kappa, L234A L235A, N297A, name in Kabat numbering)
heavy: QVQLVESGGGVVQPGRSLRLSCAASGFTFSNAWMHWVRQAPGKGLEWVAQIKAKSNNYATYYAESVKGRFTISRDDSKNSLYLQMNSLKTEDTAVYYCRYVHYGAYYGVDAWGQGTTVTVSSASTKGPSVFPLAPSSKSTSGGTAALGCLVKDYFPEPVTVSWNSGALTSGVHTFPAVLQSSGLYSLSSVVTVPSSSLGTQTYICNVNHKPSNTKVDKKVEPKSCDKTHTCPPCPAPEAAGGPSVFLFPPKPKDTLMISRTPEVTCVVVDVSHEDPEVKFNWYVDGVEVHNAKTKPREEQYASTYRVVSVLTVLHQDWLNGKEYKCKVSNKALPAPIEKTISKAKGQPREPQVYTLPPSRCELTKNQVSLSCAVKGFYPSDIAVEWESNGQPENNYKTTPPVLDSDGSFFLVSKLTVDKSRWQQGNVFSCSVMHEALHNHYTQKSLSLSPDYKDDDDK
chain: EPKSSDKTHTCPPCPAPELLGGPSVFLFPPKPKDTLMISRTPEVTCVVVDVSHEDPEVKFNWYVDGVEVHNAKTKPREEQYNSTYRVVSVLTVLHQDWLNGKEYKCKVSNKALPAPIEKTISKAKGQPREPQVCTLPPSRDELTKNQVSLWCLVKGFYPSDIAVEWESNGQPENNYKTTPPVLDSDGSFFLYSKLTVDKSRWQQGNVFSCSVMHEALHNRYTQKSLSLSP
light: DIVMTQSPLSLPVTPGEPASISCRSSQSLVHSNRNTYLHWYQQKPGQAPRLLIYKVSNRFSGVPDRFSGSGSGTDFTLKISRVEAEDVGVYYCGQGTQVLYTFGQGTKLEIKRTVAAPSVFIFPPSDEQLKSGTASVVCLLNNFYPREAKVQWKVDNALQSGNSQESVTEQDSKDSTYSLSSTLTLSKADYEKHKVYACEVTHQGLSSPVTKSFNRGEC
ratio of amount bound vs unaltered GLS3000: 0.24

B4: GLS3000 Q93D one-arm antibody (antibody, human IgG1, kappa, L234A L235A, N297A, name in Kabat numbering)
heavy: B2 heavy
chain: B2 chain
light: B2 light with Q98D, L100P
ratio of amount bound vs unaltered GLS3000: 0.72

B5: GLS3000 Q90S one-arm antibody (antibody, human IgG1, kappa, L234A L235A, N297A, name in Kabat numbering)
heavy: B2 heavy
chain: B2 chain
light: B2 light with Q95S, L100P
ratio of amount bound vs unaltered GLS3000: 0.73

B7: GLS3000 N53Y one-arm antibody (antibody, human IgG1, kappa, L234A L235A, N297A, name in Kabat numbering)
heavy: B2 heavy
chain: B2 chain
light: B2 light with N58Y, L100P
ratio of amount bound vs unaltered GLS3000: 0.67

B8: GLS3000 Q27D one-arm antibody (antibody, human IgG1, kappa, L234A L235A, N297A, name in Kabat numbering)
heavy: B2 heavy
chain: B2 chain
light: B2 light with Q27D, L100P
ratio of amount bound vs unaltered GLS3000: 0.85

B9: GLS3000 N53P one-arm antibody (antibody, human IgG1, kappa, L234A L235A, N297A, name in Kabat numbering)
heavy: B2 heavy
chain: B2 chain
light: B2 light with N58P, L100P
ratio of amount bound vs unaltered GLS3000: 0.81

B10: GLS3000 Q90P one-arm antibody (antibody, human IgG1, kappa, L234A L235A, N297A, name in Kabat numbering)
heavy: B2 heavy
chain: B2 chain
light: B2 light with Q95P, L100P
ratio of amount bound vs unaltered GLS3000: 0.27

B11: GLS3000 Q27R one-arm antibody (antibody, human IgG1, kappa, L234A L235A, N297A, name in Kabat numbering)
heavy: B2 heavy
chain: B2 chain
light: B2 light with Q27R, L100P
ratio of amount bound vs unaltered GLS3000: 1.19

B12: GLS3000 Q90A one-arm antibody (antibody, human IgG1, kappa, L234A L235A, N297A, name in Kabat numbering)
heavy: B2 heavy
chain: B2 chain
light: B2 light with Q95A, L100P
ratio of amount bound vs unaltered GLS3000: 0.5

B14: GLS3000 N53I one-arm antibody (antibody, human IgG1, kappa, L234A L235A, N297A, name in Kabat numbering)
heavy: B2 heavy
chain: B2 chain
light: B2 light with N58I, L100P
ratio of amount bound vs unaltered GLS3000: 0.5

B15: GLS3000 N53Q one-arm antibody (antibody, human IgG1, kappa, L234A L235A, N297A, name in Kabat numbering)
heavy: B2 heavy
chain: B2 chain
light: B2 light with N58Q, L100P
ratio of amount bound vs unaltered GLS3000: 0.77

B17: GLS3000 N53M one-arm antibody (antibody, human IgG1, kappa, L234A L235A, N297A, name in Kabat numbering)
heavy: B2 heavy
chain: B2 chain
light: B2 light with N58M, L100P
ratio of amount bound vs unaltered GLS3000: 0.62

B19: GLS3000 Q27P one-arm antibody (antibody, human IgG1, kappa, L234A L235A, N297A, name in Kabat numbering)
heavy: B2 heavy
chain: B2 chain
light: B2 light with Q27P, L100P
ratio of amount bound vs unaltered GLS3000: 0.29

B27: GLS3000 Q27E one-arm antibody (antibody, human IgG1, kappa, L234A L235A, N297A, name in Kabat numbering)
heavy: B2 heavy
chain: B2 chain
light: B2 light with Q27E, L100P
ratio of amount bound vs unaltered GLS3000: 0.88

B30: GLS3000 N53G one-arm antibody (antibody, human IgG1, kappa, L234A L235A, N297A, name in Kabat numbering)
heavy: B2 heavy
chain: B2 chain
light: B2 light with N58G, L100P
ratio of amount bound vs unaltered GLS3000: 0.76

B31: GLS3000 P95D one-arm antibody (antibody, human IgG1, kappa, L234A L235A, N297A, name in Kabat numbering)
heavy: B2 heavy
chain: B2 chain
light: B2 light with L100D
ratio of amount bound vs unaltered GLS3000: 0.24

B33: GLS3000 N53T one-arm antibody (antibody, human IgG1, kappa, L234A L235A, N297A, name in Kabat numbering)
heavy: B2 heavy
chain: B2 chain
light: B2 light with N58T, L100P
ratio of amount bound vs unaltered GLS3000: 0.56

Further lines, results first:

ratio of amount bound vs unaltered GLS3000: 0.69
B1: GLS3000 N53F one-arm antibody (antibody, human IgG1, kappa, L234A L235A, N297A, name in Kabat numbering)
heavy: B2 heavy
chain: B2 chain
light: B2 light with N58F, L100P

ratio of amount bound vs unaltered GLS3000: 0.19
B3: GLS3000 Q90D one-arm antibody (antibody, human IgG1, kappa, L234A L235A, N297A, name in Kabat numbering)
heavy: B2 heavy
chain: B2 chain
light: B2 light with Q95D, L100P

ratio of amount bound vs unaltered GLS3000: 0.69
B6: GLS3000 N53S one-arm antibody (antibody, human IgG1, kappa, L234A L235A, N297A, name in Kabat numbering)
heavy: B2 heavy
chain: B2 chain
light: B2 light with N58S, L100P

ratio of amount bound vs unaltered GLS3000: 0.86
B13: GLS3000 Q90E one-arm antibody (antibody, human IgG1, kappa, L234A L235A, N297A, name in Kabat numbering)
heavy: B2 heavy
chain: B2 chain
light: B2 light with Q95E, L100P

ratio of amount bound vs unaltered GLS3000: 1.08
B16: GLS3000 N53K one-arm antibody (antibody, human IgG1, kappa, L234A L235A, N297A, name in Kabat numbering)
heavy: B2 heavy
chain: B2 chain
light: B2 light with N58K, L100P

ratio of amount bound vs unaltered GLS3000: 0.85
B18: GLS3000 Q93A one-arm antibody (antibody, human IgG1, kappa, L234A L235A, N297A, name in Kabat numbering)
heavy: B2 heavy
chain: B2 chain
light: B2 light with Q98A, L100P

ratio of amount bound vs unaltered GLS3000: 1.18
B20: GLS3000 N53H one-arm antibody (antibody, human IgG1, kappa, L234A L235A, N297A, name in Kabat numbering)
heavy: B2 heavy
chain: B2 chain
light: B2 light with N58H, L100P

ratio of amount bound vs unaltered GLS3000: 0.92
B21: GLS3000 Q27L one-arm antibody (antibody, human IgG1, kappa, L234A L235A, N297A, name in Kabat numbering)
heavy: B2 heavy
chain: B2 chain
light: B2 light with Q27L, L100P

ratio of amount bound vs unaltered GLS3000: 1.58
B22: GLS3000 N53R one-arm antibody (antibody, human IgG1, kappa, L234A L235A, N297A, name in Kabat numbering)
heavy: B2 heavy
chain: B2 chain
light: B2 light with N58R, L100P

ratio of amount bound vs unaltered GLS3000: 0.17
B23: GLS3000 Q90Y one-arm antibody (antibody, human IgG1, kappa, L234A L235A, N297A, name in Kabat numbering)
heavy: B2 heavy
chain: B2 chain
light: B2 light with Q95Y, L100P

ratio of amount bound vs unaltered GLS3000: 0.81
B24: GLS3000 N53W one-arm antibody (antibody, human IgG1, kappa, L234A L235A, N297A, name in Kabat numbering)
heavy: B2 heavy
chain: B2 chain
light: B2 light with N58W, L100P

ratio of amount bound vs unaltered GLS3000: 0.43
B25: GLS3000 P95S one-arm antibody (antibody, human IgG1, kappa, L234A L235A, N297A, name in Kabat numbering)
heavy: B2 heavy
chain: B2 chain
light: B2 light with L100S

ratio of amount bound vs unaltered GLS3000: 0.63
B26: GLS3000 P95A one-arm antibody (antibody, human IgG1, kappa, L234A L235A, N297A, name in Kabat numbering)
heavy: B2 heavy
chain: B2 chain
light: B2 light with L100A

ratio of amount bound vs unaltered GLS3000: 0.37
B28: GLS3000 P95G one-arm antibody (antibody, human IgG1, kappa, L234A L235A, N297A, name in Kabat numbering)
heavy: B2 heavy
chain: B2 chain
light: B2 light with L100G

ratio of amount bound vs unaltered GLS3000: 0.56
B29: GLS3000 N53V one-arm antibody (antibody, human IgG1, kappa, L234A L235A, N297A, name in Kabat numbering)
heavy: B2 heavy
chain: B2 chain
light: B2 light with N58V, L100P

ratio of amount bound vs unaltered GLS3000: 0.56
B32: GLS3000 N53L one-arm antibody (antibody, human IgG1, kappa, L234A L235A, N297A, name in Kabat numbering)
heavy: B2 heavy
chain: B2 chain
light: B2 light with N58L, L100P

ratio of amount bound vs unaltered GLS3000: 0.39
B34: GLS3000 P95E one-arm antibody (antibody, human IgG1, kappa, L234A L235A, N297A, name in Kabat numbering)
heavy: B2 heavy
chain: B2 chain
light: B2 light with L100E
